From patent publication US9295724B2, “Stable formulations for parenteral injection of peptide drugs” (Xeris Pharmaceuticals, Inc., priority 2011, dated 2016)

How the values were obtained:
[1] = Effect of pH on insulin solubility in DMSO; assay type: physicochemical
Description: These solutions were lyophilized to dryness ([…]) using a conservative cycle and reconstituted to various nominal concentrations in DMSO. Solubility was measured by visual inspection for clarity and turbidity via A630.

[2] = Freezing point depression of DMSO solutions by DSC; assay type: physicochemical; conditions: cooled to −40° C. and heated to 40° C. at 8° C. per minute
Description: Using PerkinElmer Instruments PYRIS Diamond Differential Scanning Calorimetry (“DSC”), samples were cooled to −40° C. and heated to 40° C. at 8° C. per minute for screening purposes.

Compound	solubility in DMSO ([1]; lyophilized at pH 2)	time to slowly dissolve to a clear solution ([1]; pH memory of 7, lower concentration e.g. 10 mg/mL, DMSO)	solubility in DMSO ([1]; pH memory of 7, lowest concentration tested 10 mg/mL)	temperature of crystallization (Tc) by DSC [2] [°C]
insulin	at least 100 mg/mL	about 24 hours	poor solubility	–
C[S+](C)[O-] [neat DMSO, dimethylsulfoxide]	–	–	–	18
